The labels stand for the following.
T1: full-length Ydj1 (yeast, UniProt P25491 1-409)
T1 construct: Ydj1, yeast cytosolic Type I DnaJ/Hsp40, full length; also called wild-type Ydj1; source: E. coli BL21(DE3), purified by two chromatography steps
T1 sequence (looked up): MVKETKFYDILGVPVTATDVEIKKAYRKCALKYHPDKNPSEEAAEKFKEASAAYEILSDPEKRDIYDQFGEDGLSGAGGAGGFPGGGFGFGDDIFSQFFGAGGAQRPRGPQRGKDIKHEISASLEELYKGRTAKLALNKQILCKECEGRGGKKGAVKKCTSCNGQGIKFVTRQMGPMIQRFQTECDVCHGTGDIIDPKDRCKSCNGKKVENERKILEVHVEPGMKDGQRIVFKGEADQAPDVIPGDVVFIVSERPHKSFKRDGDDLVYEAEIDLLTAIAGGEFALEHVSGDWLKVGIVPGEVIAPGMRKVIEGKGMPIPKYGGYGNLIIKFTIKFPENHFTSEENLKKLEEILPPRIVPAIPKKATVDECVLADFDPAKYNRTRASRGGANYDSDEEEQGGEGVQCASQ

B1: Hsp70 Ssa1 (natural protein)
chain: not shown
notes: Ssa1, yeast cytosolic Hsp70; also called yeast Hsp70; source: E. coli BL21(DE3), purified by two chromatography steps (said of all recombinant proteins, 'unless otherwise noted')
B2: Sis1_Δ_(121–257) (natural protein, yeast, UniProt P25294 1-352, looked up)
chain: MVKETKLYDLLGVSPSANEQELKKGYRKAALKYHPDKPTGDTEKFKEISEAFEILNDPQKREIYDQYGLEAARSGGPSFGPGGPGGAGGAGGFPGGAGGFSGGHAFSNEDAFNIFSQFFGHPNFKRDGDDLIYTLPLSFKESLLGFSKTIQTIDGRTLPLSRVQPVQPSQTSTYPGQGMPTPKNPSQRGNLIVKYKVDYPISLNDAQKRAIDENF
notes: source: E. coli BL21(DE3), purified by two chromatography steps
B3: Sis1_Δ_(124–174) (natural protein, yeast, UniProt P25294 1-352, looked up)
chain: MVKETKLYDLLGVSPSANEQELKKGYRKAALKYHPDKPTGDTEKFKEISEAFEILNDPQKREIYDQYGLEAARSGGPSFGPGGPGGAGGAGGFPGGAGGFSGGHAFSNEDAFNIFSQFFGGSSTYPEEETVQVNLPVSLEDLFVGKKKSFKIGRKGPHGASEKTQIDIQLKPGWKAGTKITYKNQGDYNPQTGRRKTLQFVIQEKSHPNFKRDGDDLIYTLPLSFKESLLGFSKTIQTIDGRTLPLSRVQPVQPSQTSTYPGQGMPTPKNPSQRGNLIVKYKVDYPISLNDAQKRAIDENF
notes: as for B2
B4: wild-type Sis1 (natural protein, yeast, UniProt P25294 1-352, looked up)
chain: MVKETKLYDLLGVSPSANEQELKKGYRKAALKYHPDKPTGDTEKFKEISEAFEILNDPQKREIYDQYGLEAARSGGPSFGPGGPGGAGGAGGFPGGAGGFSGGHAFSNEDAFNIFSQFFGGSSPFGGADDSGFSFSSYPSGGGAGMGGMPGGMGGMHGGMGGMPGGFRSASSSPTYPEEETVQVNLPVSLEDLFVGKKKSFKIGRKGPHGASEKTQIDIQLKPGWKAGTKITYKNQGDYNPQTGRRKTLQFVIQEKSHPNFKRDGDDLIYTLPLSFKESLLGFSKTIQTIDGRTLPLSRVQPVQPSQTSTYPGQGMPTPKNPSQRGNLIVKYKVDYPISLNDAQKRAIDENF
notes: Sis1, yeast cytosolic Type II DnaJ/Hsp40, full length wild type (residues to 352 by the SYS formula); no tag is stated; also called native Sis1; full length wild-type Sis1; source: E. coli BL21(DE3), purified by two chromatography steps
B5: SYS (Sis1_(1–121)-Ydj1_(101–255)-Sis1_(258–352)) (other, yeast, UniProt P25294 1-121, looked up)
chain: MVKETKLYDLLGVSPSANEQELKKGYRKAALKYHPDKPTGDTEKFKEISEAFEILNDPQKREIYDQYGLEAARSGGPSFGPGGPGGAGGAGGFPGGAGGFSGGHAFSNEDAFNIFSQFFGGAGGAQRPRGPQRGKDIKHEISASLEELYKGRTAKLALNKQILCKECEGRGGKKGAVKKCTSCNGQGIKFVTRQMGPMIQRFQTECDVCHGTGDIIDPKDRCKSCNGKKVENERKILEVHVEPGMKDGQRIVFKGEADQAPDVIPGDVVFIVSERPHPNFKRDGDDLIYTLPLSFKESLLGFSKTIQTIDGRTLPLSRVQPVQPSQTSTYPGQGMPTPKNPSQRGNLIVKYKVDYPISLNDAQKRAIDENF
notes: Ydj1, yeast, residues 101–255 (central region); Sis1, yeast, residues 258–352 (CTDII and dimerization region); also called chimera SYS; SYS chimera; source: E. coli BL21(DE3), purified by two chromatography steps

One data set has as its target T1, full-length Ydj1. The data set is described as follows: ELISA; Sis1, variants or Ydj1 (100 µL at 200 nM) coated on the microplate; Ssa1 (100 nM) in 50 mM phosphate pH 7.4, 150 mM NaCl, 5 mM Mg-ATP, 1 h, 25°C; bound Ssa1 detected with α-Ssa1; Sis1 set as 100%. Particulars: both partners purified. A general note: In an ELISA, binding on a coated surface is turned into a signal by an enzyme label.

The target in the data set “Sis1_Δ_(121–257)” is B2. The data set is described as above. Particulars: both partners purified.
Data set [1] addresses B5. The data set is described as above. The conditions noted are these: both partners purified.
Data set [2] concerns the molecule itself. The data set is described as follows: SEC-MALLS; Superdex 200 10/300 GL, buffer A (25 mM Tris-HCl pH 7.5, 500 mM NaCl); 25 µM protein without urea, 50–75 µM with urea up to 1 M.
In the data set “Hsp70 Ssa1” the target is B1. Put plainly: ELISA; Sis1, variants or Ydj1 (100 µL at 200 nM) coated on the microplate; Ssa1 (100 nM) in 50 mM phosphate pH 7.4, 150 mM NaCl, 5 mM Mg-ATP, 1 h, 25°C; bound Ssa1 detected with α-Ssa1; Sis1 set as 100%. The conditions noted are these: both partners purified.

Sequence of Hsp70 Ssa1 (P10591 whole entry): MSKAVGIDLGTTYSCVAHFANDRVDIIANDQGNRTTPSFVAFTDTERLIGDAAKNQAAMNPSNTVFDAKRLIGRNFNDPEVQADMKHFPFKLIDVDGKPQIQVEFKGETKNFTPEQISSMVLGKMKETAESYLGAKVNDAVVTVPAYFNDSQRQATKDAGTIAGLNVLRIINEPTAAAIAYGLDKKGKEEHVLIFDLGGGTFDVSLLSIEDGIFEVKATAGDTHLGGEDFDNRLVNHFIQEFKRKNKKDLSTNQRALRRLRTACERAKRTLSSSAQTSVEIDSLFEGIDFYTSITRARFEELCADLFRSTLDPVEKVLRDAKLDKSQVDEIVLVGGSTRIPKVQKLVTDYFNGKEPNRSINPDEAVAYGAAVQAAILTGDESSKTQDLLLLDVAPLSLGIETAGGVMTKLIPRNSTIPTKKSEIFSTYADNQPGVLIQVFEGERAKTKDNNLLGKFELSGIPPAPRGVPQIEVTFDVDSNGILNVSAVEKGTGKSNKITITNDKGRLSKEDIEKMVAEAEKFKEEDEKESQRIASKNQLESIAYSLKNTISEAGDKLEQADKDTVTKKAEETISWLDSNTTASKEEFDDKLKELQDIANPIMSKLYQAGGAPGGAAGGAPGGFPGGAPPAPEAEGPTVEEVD

On to B1, for which the “percent of the binding ability of Sis1” value with full-length Ydj1 is around 30%; with Sis1_Δ_(121–257), around 50%; in data set [1], around 50%.
Consider B2, for which, in data set [2], the stoichiometry N (commonly the number of molecules, sites or subunits per partner or assembly) was found to be 2.
Regarding B3, the binding result with Hsp70 Ssa1 is on record as “binds”. In addition, in data set [2], the “stoichiometry N” value was found to be 2.
On the same counts, the results for B4 are “binds” and 2.
B5: the “stoichiometry N” value in data set [2] is 2.

(Values after paper PMC3515540, “Identification of Regions Involved in Substrate Binding and Dimer Stabilization within the Central Domains of Yeast Hsp40 Sis1” (PLoS ONE, 2012).)
